The target in assay [1] is HIV-1 gp41^27–194 (HIV-1 (HXB2)). Put plainly: AUC.
In assay [2] the target is gp41^27–154 (HIV ectodomain) (HIV-1). The assay can be described thus: AUC.

In assay [1], HIV-1 gp41^27–194 (domain or fragment) showed a stoichiometry N of 3.
Take “gp41^27–154 (HIV ectodomain) (domain or fragment)”: the stoichiometry N in assay [2] was 3.

In general, stoichiometry N refers to the number of molecules, sites or subunits per partner or assembly.
